Among the data in the supplement of paper PMC10567573 are protein stability index values, retold here.

To fix the notation:
B1: KRT15 (parent)
chain: SNFHINVEESVDGQVVSSHKREI
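Further: lentivirally expressed fusions sorted by FACS into six bins by GFP to DsRed ratio, PSI derived from sequencing read proportions per bin multiplied by bin number.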

In the series the parent is B1. In words: protein stability index of a GFP-peptide fusion (GPS, HEK-293T) (PSI 1-6); higher = more stable. As to conditions: c terminus: native.
Regarding SNFHINYEESVDGQVVSSHKREI [V7Y], the protein stability index worked out at 1.36.

For SNFHINWEESVDGQVVSSHKREI [V7W], the protein stability index is 2.64.

Take SNFHINMEESVDGQVVSSHKREI [V7M]: the protein stability index stood at 1.14.

As for SNFHINEEESVDGQVVSSHKREI [V7E], the protein stability index is 3.63.

In the case of SNFHINKEESVDGQVVSSHKREI [V7K], the protein stability index was 2.1.

For SNFHINHEESVDGQVVSSHKREI [V7H], the protein stability index is 2.11.

For SNFHINDEESVDGQVVSSHKREI [V7D], the protein stability index was determined as 2.01.

SNFHINNEESVDGQVVSSHKREI [V7N]: the protein stability index was found to be 2.1.

For the variant SNFHINLEESVDGQVVSSHKREI [V7L], the protein stability index was 1.34.

SNFHINPEESVDGQVVSSHKREI [V7P]: the protein stability index turned out to be 2.14.

As for SNFHINSEESVDGQVVSSHKREI [V7S], the protein stability index is 2.12.

With SNFHINTEESVDGQVVSSHKREI [V7T], the protein stability index came to 3.07.

Consider SNFHINCEESVDGQVVSSHKREI [V7C], for which the protein stability index was 4.

As for SNFHINAEESVDGQVVSSHKREI [V7A], the protein stability index was found to be 2.76.

Turning to SNFHINQEESVDGQVVSSHKREI [V7Q], the protein stability index was found to be 2.88.

On to SNFHINGEESVDGQVVSSHKREI [V7G], for which the protein stability index was 3.08.

SNFHINREESVDGQVVSSHKREI [V7R]: the protein stability index came to 2.78.

For SNFHINIEESVDGQVVSSHKREI [V7I], the protein stability index came out at 2.18.

Consider SNFHIPVEESVDGQVVSSHKREI [N6P], for which the protein stability index was 1.9.

On to SNFHISVEESVDGQVVSSHKREI [N6S], for which the protein stability index was determined as 1.63.

In the case of SNFHITVEESVDGQVVSSHKREI [N6T], the protein stability index was found to be 2.42.

On to SNFHIKVEESVDGQVVSSHKREI [N6K], for which the protein stability index worked out at 1.78.

As to SNFHIIVEESVDGQVVSSHKREI [N6I], the protein stability index turned out to be 3.69.

For SNFHIYVEESVDGQVVSSHKREI [N6Y], the protein stability index was 1.06.

Turning to SNFHIMVEESVDGQVVSSHKREI [N6M], the protein stability index came to 2.11.

For the variant SNFHILVEESVDGQVVSSHKREI [N6L], the protein stability index came out at 2.23.

In the case of SNFHIFVEESVDGQVVSSHKREI [N6F], the protein stability index is 2.11.

Consider SNFHIHVEESVDGQVVSSHKREI [N6H], for which the protein stability index stood at 2.28.

Consider SNFHIGVEESVDGQVVSSHKREI [N6G], for which the protein stability index came to 2.24.

On to SNFHIQVEESVDGQVVSSHKREI [N6Q], for which the protein stability index was found to be 2.27.

As for SNFHINVEESSDGQVVSSHKREI [V11S], the protein stability index came to 2.48.

As for SNFHINVEESHDGQVVSSHKREI [V11H], the protein stability index was 1.83.

SNFHINVEESKDGQVVSSHKREI [V11K]: the protein stability index is 1.53.

SNFHINVEESRDGQVVSSHKREI [V11R]: the protein stability index stood at 1.46.

As to SNFHINVEESPDGQVVSSHKREI [V11P], the protein stability index was determined as 2.33.

Consider SNFHINVEESQDGQVVSSHKREI [V11Q], for which the protein stability index came to 2.3.

For SNFHINVEESTDGQVVSSHKREI [V11T], the protein stability index is 1.67.

Regarding SNFHINVEESLDGQVVSSHKREI [V11L], the protein stability index is 1.34.

For the variant SNFHINVEESIDGQVVSSHKREI [V11I], the protein stability index was 2.17.

As to SNFHINVEESEDGQVVSSHKREI [V11E], the protein stability index is 2.36.

With SNFHINVEESCDGQVVSSHKREI [V11C], the protein stability index was 2.69.

Consider SNFHINVEESGDGQVVSSHKREI [V11G], for which the protein stability index was 1.7.

For the variant SNFHINVEESMDGQVVSSHKREI [V11M], the protein stability index is 1.85.

Consider SNFHINVEESNDGQVVSSHKREI [V11N], for which the protein stability index was found to be 2.33.

Take SNFHINVEESFDGQVVSSHKREI [V11F]: the protein stability index is 3.87.

For SNFHINVEESADGQVVSSHKREI [V11A], the protein stability index turned out to be 1.94.

Turning to SNFHINVEESDDGQVVSSHKREI [V11D], the protein stability index was determined as 2.09.

As for SNFHINVEESWDGQVVSSHKREI [V11W], the protein stability index turned out to be 1.86.

SNFHINVEEGVDGQVVSSHKREI [S10G]: the protein stability index is 2.19.

Take SNFHINVEEKVDGQVVSSHKREI [S10K]: the protein stability index was found to be 1.5.

In the case of SNFHINVEEAVDGQVVSSHKREI [S10A], the protein stability index is 2.85.

For the variant SNFHINVEETVDGQVVSSHKREI [S10T], the protein stability index stood at 1.91.

As to SNFHINVEEQVDGQVVSSHKREI [S10Q], the protein stability index was determined as 1.81.

On to SNFHINVEECVDGQVVSSHKREI [S10C], for which the protein stability index was determined as 3.07.

With SNFHINVEEHVDGQVVSSHKREI [S10H], the protein stability index turned out to be 1.95.

Consider SNFHINVEENVDGQVVSSHKREI [S10N], for which the protein stability index is 2.09.

For SNFHINVEEVVDGQVVSSHKREI [S10V], the protein stability index amounted to 1.87.

For the variant SNFHINVEEEVDGQVVSSHKREI [S10E], the protein stability index turned out to be 2.57.

Consider SNFHINVEELVDGQVVSSHKREI [S10L], for which the protein stability index turned out to be 1.38.

Consider SNFHINVEEPVDGQVVSSHKREI [S10P], for which the protein stability index came to 1.91.

Regarding SNFHINVEEFVDGQVVSSHKREI [S10F], the protein stability index turned out to be 1.43.

Regarding SNFHINVEERVDGQVVSSHKREI [S10R], the protein stability index came to 2.21.

Turning to SNFHINVEEDVDGQVVSSHKREI [S10D], the protein stability index amounted to 2.95.

As to SNFHINVEEIVDGQVVSSHKREI [S10I], the protein stability index is 1.34.

With SNFHINVEEYVDGQVVSSHKREI [S10Y], the protein stability index stood at 2.62.

As to SNFHINVIESVDGQVVSSHKREI [E8I], the protein stability index worked out at 2.73.

As for SNFHINVAESVDGQVVSSHKREI [E8A], the protein stability index turned out to be 1.57.

With SNFHINVPESVDGQVVSSHKREI [E8P], the protein stability index is 2.47.

Consider SNFHINVFESVDGQVVSSHKREI [E8F], for which the protein stability index was 3.87.

Consider SNFHINVDESVDGQVVSSHKREI [E8D], for which the protein stability index was 1.8.

With SNFHINVGESVDGQVVSSHKREI [E8G], the protein stability index was 1.42.

With SNFHINVNESVDGQVVSSHKREI [E8N], the protein stability index worked out at 1.9.

With SNFHINVYESVDGQVVSSHKREI [E8Y], the protein stability index was found to be 2.88.

As to SNFHINVHESVDGQVVSSHKREI [E8H], the protein stability index stood at 1.78.

Turning to SNFHINVWESVDGQVVSSHKREI [E8W], the protein stability index came to 2.41.

Turning to SNFHINVCESVDGQVVSSHKREI [E8C], the protein stability index is 2.07.

Turning to SNFHINVVESVDGQVVSSHKREI [E8V], the protein stability index amounted to 1.32.

Consider SNFHINVLESVDGQVVSSHKREI [E8L], for which the protein stability index worked out at 2.02.

As for SNFHINVTESVDGQVVSSHKREI [E8T], the protein stability index was 1.34.

Regarding SNFHINVQESVDGQVVSSHKREI [E8Q], the protein stability index was found to be 1.59.

As for SNFHINVKESVDGQVVSSHKREI [E8K], the protein stability index is 2.28.

As to SNFHINVSESVDGQVVSSHKREI [E8S], the protein stability index turned out to be 2.03.

As to SNFHINVRESVDGQVVSSHKREI [E8R], the protein stability index turned out to be 2.02.

As for SNFHINVETSVDGQVVSSHKREI [E9T], the protein stability index is 2.17.

Take SNFHINVEFSVDGQVVSSHKREI [E9F]: the protein stability index was found to be 3.74.

For the variant SNFHINVEHSVDGQVVSSHKREI [E9H], the protein stability index worked out at 2.1.

Consider SNFHINVEDSVDGQVVSSHKREI [E9D], for which the protein stability index is 2.21.

Regarding SNFHINVEGSVDGQVVSSHKREI [E9G], the protein stability index was 1.54.

Take SNFHINVEKSVDGQVVSSHKREI [E9K]: the protein stability index amounted to 1.

For SNFHINVERSVDGQVVSSHKREI [E9R], the protein stability index worked out at 1.89.

Turning to SNFHINVENSVDGQVVSSHKREI [E9N], the protein stability index was 1.95.

SNFHINVEMSVDGQVVSSHKREI [E9M]: the protein stability index is 3.34.

Turning to SNFHINVESSVDGQVVSSHKREI [E9S], the protein stability index is 1.45.

For SNFHINVEQSVDGQVVSSHKREI [E9Q], the protein stability index turned out to be 1.47.

On to SNFHINVEASVDGQVVSSHKREI [E9A], for which the protein stability index turned out to be 2.02.

In the case of SNFHINVECSVDGQVVSSHKREI [E9C], the protein stability index was determined as 2.73.

With SNFHINVEPSVDGQVVSSHKREI [E9P], the protein stability index turned out to be 2.26.
